From patent US20240209092A1 (ADAGENE, published 2024) come the findings set out here.

Experiment [1] deals with T1, recombinant cynomolgus monkey CTLA4 protein (extracellular domain) (cynomolgus monkey, UniProt G7PL88 36-161).
T1 sequence: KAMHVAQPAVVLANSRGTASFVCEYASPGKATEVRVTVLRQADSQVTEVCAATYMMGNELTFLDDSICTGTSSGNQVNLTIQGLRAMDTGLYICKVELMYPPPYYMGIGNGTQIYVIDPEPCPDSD
Description: ELISA, recombinant cynomolgus monkey CTLA4 extracellular domain coated on the plate, captured antibody detected with HRP-labeled anti-human IgG (Fab specific), absorbance at 450 nm. (An ELISA detects its analyte on a solid surface through an enzyme-linked reagent.)

Experiment [2] has as its target T2, recombinant human CTLA4 protein (extracellular domain) (human, UniProt P16410 36-161).
T2 construct: extracellular domain
T2 sequence (looked up): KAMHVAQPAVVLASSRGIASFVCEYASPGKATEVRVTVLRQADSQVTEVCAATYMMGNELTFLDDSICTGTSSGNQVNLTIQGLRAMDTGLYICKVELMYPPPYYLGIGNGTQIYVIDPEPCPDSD
Description: ELISA, recombinant human CTLA4 extracellular domain coated on the plate, captured antibody detected with HRP-labeled anti-human IgG (Fab specific), absorbance at 450 nm.

Experiment [3] concerns the target T3, recombinant rat CTLA4 protein (extracellular domain) (rat, UniProt Q62859 36-161).
T3 sequence: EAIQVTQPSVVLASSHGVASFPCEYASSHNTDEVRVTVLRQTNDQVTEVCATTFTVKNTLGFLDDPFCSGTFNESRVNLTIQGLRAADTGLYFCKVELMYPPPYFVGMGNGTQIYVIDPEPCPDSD
Description: ELISA, recombinant rat CTLA4 extracellular domain coated on the plate, captured antibody detected with HRP-labeled anti-human IgG (Fab specific), absorbance at 450 nm.

The target in experiment [4] is T4, recombinant mouse CTLA4 protein (extracellular domain) (mouse, UniProt P09793 36-161).
T4 construct: extracellular domain
Description: ELISA, recombinant mouse CTLA4 extracellular domain coated on the plate, captured antibody detected with HRP-labeled anti-human IgG (Fab specific), absorbance at 450 nm.

Experiment [5] has as its target T4, recombinant mouse CTLA4 protein …. Description: ELISA, CTLA4 extracellular domain coated; reference masked TY22404.
The target of experiment [6] is T3, recombinant rat CTLA4 protein …. The description is as above.
Experiment [7] deals with T1, recombinant cynomolgus monkey CTLA4 …. The experiment is described as above.
Experiment [8] concerns the target T2, recombinant human CTLA4 protein …. The description is as above.
Experiment [9] concerns the target T4, recombinant mouse CTLA4 protein …. Description: ELISA, CTLA4 extracellular domain coated, HRP anti-human IgG (Fab specific) detection.
For experiment [10], the target named is T3, recombinant rat CTLA4 protein …. Described as above.
The target in experiment [11] is T1, recombinant cynomolgus monkey CTLA4 …. The experiment is described as above.
Experiment [12] addresses T2, recombinant human CTLA4 protein …. The description is as above.
In experiment [13] the target is T5, human CTLA4 expressed on cells (human, UniProt P16410 36-223).
T5 sequence (looked up): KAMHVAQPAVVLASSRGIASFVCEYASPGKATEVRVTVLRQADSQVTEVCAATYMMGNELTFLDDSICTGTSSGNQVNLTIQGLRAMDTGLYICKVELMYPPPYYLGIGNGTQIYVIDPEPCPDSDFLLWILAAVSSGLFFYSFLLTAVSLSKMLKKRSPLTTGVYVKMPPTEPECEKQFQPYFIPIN
Description: cell-based or functional assay.

Some results are limits rather than exact numbers.

B1: TY22404 (masked, masking peptide intact) (antibody)
heavy: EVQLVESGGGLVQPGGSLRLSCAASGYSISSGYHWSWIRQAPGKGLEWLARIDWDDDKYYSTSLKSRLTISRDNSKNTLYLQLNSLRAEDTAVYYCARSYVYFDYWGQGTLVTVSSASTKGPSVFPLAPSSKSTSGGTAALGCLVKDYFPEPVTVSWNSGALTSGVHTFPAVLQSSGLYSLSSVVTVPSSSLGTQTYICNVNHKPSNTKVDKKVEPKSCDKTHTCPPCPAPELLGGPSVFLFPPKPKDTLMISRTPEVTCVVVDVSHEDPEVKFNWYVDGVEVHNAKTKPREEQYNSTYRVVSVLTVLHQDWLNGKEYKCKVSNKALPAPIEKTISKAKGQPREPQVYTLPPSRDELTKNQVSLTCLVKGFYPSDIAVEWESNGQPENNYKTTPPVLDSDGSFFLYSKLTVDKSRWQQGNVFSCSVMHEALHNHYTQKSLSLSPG
light: EVGSYPNPSSDCVPYYYACAYSGRSAGGGGTPLGLAGSGGSDIQLTQSPSSLSASVGDRVTITCRASQSVRGRFLAWYQQKPGKAPKLLIYDASNRATGIPSRFSGSGSGTDFTLTISSLQPEDFATYYCQQSSSWPPTFGQGTKVEIKRTVAAPSVFIFPPSDEQLKSGTASVVCLLNNFYPREAKVQWKVDNALQSGNSQESVTEQDSKDSTYSLSSTLTLSKADYEKHKVYACEVTHQGLSSPVTKSFNRGEC
notes: It has the VH and VL of TY21580, with the mask/linker at the N-terminus of the light chain; also called masked TY22404; masking peptide-intact TY22404
For the molecule B1, the EC50 (read off the curve) (commonly the concentration needed to bring the measured effect to its halfway point) is around 10000 pM in [1], around 70000 pM in experiment [2], around 30000 pM in experiment [3] and around 100000 pM in [4].

B2: activated TY22404 by condition 2 (antibody)
heavy: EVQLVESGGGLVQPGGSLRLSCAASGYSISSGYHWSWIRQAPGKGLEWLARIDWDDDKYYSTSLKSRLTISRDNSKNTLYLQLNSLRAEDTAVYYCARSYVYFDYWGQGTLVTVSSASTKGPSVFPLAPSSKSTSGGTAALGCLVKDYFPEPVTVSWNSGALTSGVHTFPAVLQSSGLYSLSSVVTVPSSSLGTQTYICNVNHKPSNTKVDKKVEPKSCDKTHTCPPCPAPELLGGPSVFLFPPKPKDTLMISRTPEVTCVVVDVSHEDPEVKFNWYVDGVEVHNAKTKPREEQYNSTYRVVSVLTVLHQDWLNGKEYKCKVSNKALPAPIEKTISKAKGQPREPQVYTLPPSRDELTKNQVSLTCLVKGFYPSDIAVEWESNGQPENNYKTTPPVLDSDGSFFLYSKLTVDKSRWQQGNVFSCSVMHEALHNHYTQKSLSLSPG
light: DIQLTQSPSSLSASVGDRVTITCRASQSVRGRFLAWYQQKPGKAPKLLIYDASNRATGIPSRFSGSGSGTDFTLTISSLQPEDFATYYCQQSSSWPPTFGQGTKVEIKRTVAAPSVFIFPPSDEQLKSGTASVVCLLNNFYPREAKVQWKVDNALQSGNSQESVTEQDSKDSTYSLSSTLTLSKADYEKHKVYACEVTHQGLSSPVTKSFNRGEC
notes: IgG1; also called cleaved TY22404; not shown: remnant of the cleavable linker left after cleavage
In the case of B2, the “EC50 (read off the curve)” value in experiment [1] was around 300 pM; in experiment [2], around 300 pM; in [3] it was around 300 pM; in experiment [4], around 300 pM; in [13], around 700 pM. Further, the “fold increased affinity compared to masked TY22404” value in experiment [5] was above 300 fold; in experiment [6], above 100 fold; in [7] it was around 40 fold; in [8], above 250 fold. Moreover, the half-maximal effective concentration (EC50) in experiment [9], in experiment [10], in experiment [11] and in experiment [12] was around 300 pM throughout.

B3: activated TY22404 by condition 1 (antibody)
heavy: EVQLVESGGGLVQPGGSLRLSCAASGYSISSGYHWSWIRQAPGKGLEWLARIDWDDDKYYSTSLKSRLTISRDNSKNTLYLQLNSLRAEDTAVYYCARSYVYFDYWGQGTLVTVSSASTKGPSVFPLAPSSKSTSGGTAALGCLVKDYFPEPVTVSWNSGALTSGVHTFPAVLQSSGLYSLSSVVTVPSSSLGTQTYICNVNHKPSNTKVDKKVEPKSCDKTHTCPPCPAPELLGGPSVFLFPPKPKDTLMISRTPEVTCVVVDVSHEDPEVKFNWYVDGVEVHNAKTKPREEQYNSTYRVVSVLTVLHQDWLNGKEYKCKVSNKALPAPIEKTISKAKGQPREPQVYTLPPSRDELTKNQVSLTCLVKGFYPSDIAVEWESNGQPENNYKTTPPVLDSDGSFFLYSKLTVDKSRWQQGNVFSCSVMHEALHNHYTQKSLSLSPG
light: DIQLTQSPSSLSASVGDRVTITCRASQSVRGRFLAWYQQKPGKAPKLLIYDASNRATGIPSRFSGSGSGTDFTLTISSLQPEDFATYYCQQSSSWPPTFGQGTKVEIKRTVAAPSVFIFPPSDEQLKSGTASVVCLLNNFYPREAKVQWKVDNALQSGNSQESVTEQDSKDSTYSLSSTLTLSKADYEKHKVYACEVTHQGLSSPVTKSFNRGEC
notes: as for B2
B3: the “EC50 (read off the curve)” value in [1], in experiment [2], in experiment [3] and in [4] was around 300 pM in each case. For the same molecule, the “fold increased affinity compared to masked TY22404” value was above 300 fold in [5], above 100 fold in experiment [6], around 40 fold in experiment [7] and above 250 fold in [8]. In addition, the EC50 in [9], in experiment [10], in experiment [11] and in experiment [12] was around 300 pM each time.
